Source: US20110064740A1

Legend:
[1] = target: Cell-surface full length amyloid precursor protein (APP) on HEK293T cells transfected with wild type APP DNA (UniProt P05067); experiment: FMAT ABI8200, HEK293T cells transfected with wild type APP, mock subtracted; Experiment 2
[2] = target: Cell-surface full length amyloid precursor protein (APP) on HEK293T cells transfected with wild type APP DNA (UniProt P05067); experiment: FMAT ABI8200, HEK293T cells transfected with wild type APP, mock subtracted; Experiment 1

Cell-surface full length amyloid precursor protein (APP) on HEK293T cells transfected with wild type APP DNA, sequence (P05067 18-770): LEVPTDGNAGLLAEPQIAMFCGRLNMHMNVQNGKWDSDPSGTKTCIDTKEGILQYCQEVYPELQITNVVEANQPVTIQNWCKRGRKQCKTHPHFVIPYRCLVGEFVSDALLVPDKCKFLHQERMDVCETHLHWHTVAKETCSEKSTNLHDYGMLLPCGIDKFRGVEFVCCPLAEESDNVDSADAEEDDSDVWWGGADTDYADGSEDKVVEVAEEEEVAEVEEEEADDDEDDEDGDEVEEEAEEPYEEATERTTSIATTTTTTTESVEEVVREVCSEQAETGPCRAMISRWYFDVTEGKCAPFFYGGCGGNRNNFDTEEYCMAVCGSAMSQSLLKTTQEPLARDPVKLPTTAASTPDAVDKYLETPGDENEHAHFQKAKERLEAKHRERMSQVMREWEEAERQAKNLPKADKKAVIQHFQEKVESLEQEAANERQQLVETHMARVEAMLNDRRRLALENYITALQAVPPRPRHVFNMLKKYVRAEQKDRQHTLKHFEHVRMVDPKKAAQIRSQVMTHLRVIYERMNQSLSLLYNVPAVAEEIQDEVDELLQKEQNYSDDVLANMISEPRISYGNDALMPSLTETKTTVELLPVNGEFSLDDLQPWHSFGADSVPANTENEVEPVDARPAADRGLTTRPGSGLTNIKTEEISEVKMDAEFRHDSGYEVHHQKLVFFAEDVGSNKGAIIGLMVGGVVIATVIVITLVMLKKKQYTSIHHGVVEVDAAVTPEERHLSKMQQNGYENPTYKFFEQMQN

% of LN27 binding [1]: 2.2% | % of LN27 binding [2]: 9.9%
B1: Mouse monoclonal antibody 2E7 (antibody, mouse IgG2a, V domains shown)
VH: EVKLVESGGGLVQPGGSLKLSCAVSGFTFSDNGMAWVRQAPRKGPEWIAFISNLAYSIDYADTVTGRFTISRDNAKNTLYLEMSSLRSEDTAMYYCVSGTWFAYWGQGTLVTVSA
VL: DVVLTQTPLSLPVSLGDQASISCRVSQSLLHSNGYTYLHWYLQKPGQSPKLLIYKVSNRFSGVPDRFSGSGSGTDFTLKISRVEAEDLGVYFCSQTRHVPYTFGGGTKLEIK
